Measured values as given in article PMC2289895 (The Journal of Cell Biology, 1991).

Biological target: the molecule itself
Assay: SEC + co-IP

B1: NH2 epitope-tagged SIS1 (amino-terminal-tagged SIS1 protein) (natural protein)
chain: MVKETKLYDLLGVSPSANEQELKKGYRKAALKYHPDKPTGDTEKFKEISEAFEILNDPQKREIYDQYGLEAARSGGPSFGPGGPGGAGGAGGFPGGAGGFSGGHAFSNEDAFNIFSQFFGGSSPFGGADDSGFSFSSYPSGGGAGMGGMPGGMGGMHGGMGGMPGGFRSASSSPTYPEEETVQVNLPVSLEDLFVGKKKSFKIGRKGPHGASEKTQIDIQLKPGWKAGTKITYKNQGDYNPQTGRRKTLQFVIQEKSHPNFKRDGDDLIYTLPLSFKESLLGFSKTIQTIDGRTLPLSRVQPVQPSQTSTYPGQGMPTPKNPSQRGNLIVKYKVDYPISLNDAQKRAIDENF
**Q.** With B1 as the protein, how does the “stoichiometry N” value read?
**A.** 2
